# Measured values from patent US20200361992A1 (PROTAGONIST THERAPEUTICS, published 2020).
# Starred links: 1 amine or outer side, 2 acyl side, 3 side chain; linkers in the order of their positions; H or OH if unused. Positions of bridges follow the written chain, without caps; N, C: chain ends. Non-standard residues stand in square brackets, D forms with d. Groups on a side chain read outwards from the residue. *: point of attachment. PEG12 = NCCOCCOCCOCCOCCOCCOCCOCCOCCOCCOCCOCCOCCC(=O)O; Dip = N[C@H](C(=O)O)C(c1ccccc1)c1ccccc1; NPC = nipecotic acid (L-nipecotic acid); γGlu = O=C(O)[C@H](CCC(=O)[*:2])N[*:1]; Palmitoyl = CCCCCCCCCCCCCCCC(=O)*; NMeF = CN[C@@H](Cc1ccccc1)C(=O)O; αMeF = C[C@](N)(Cc1ccccc1)C(=O)O; β3hF = N[C@H](CC(=O)O)Cc1ccccc1; Isovaleryl = CC(C)CC(=O)*
# T1: human ferroportin (SLC40A1) fused in frame with the GFP protein, stably expressed in HEK293 cells (human, UniProt Q9NP59 1-571)
# T1 sequence (looked up): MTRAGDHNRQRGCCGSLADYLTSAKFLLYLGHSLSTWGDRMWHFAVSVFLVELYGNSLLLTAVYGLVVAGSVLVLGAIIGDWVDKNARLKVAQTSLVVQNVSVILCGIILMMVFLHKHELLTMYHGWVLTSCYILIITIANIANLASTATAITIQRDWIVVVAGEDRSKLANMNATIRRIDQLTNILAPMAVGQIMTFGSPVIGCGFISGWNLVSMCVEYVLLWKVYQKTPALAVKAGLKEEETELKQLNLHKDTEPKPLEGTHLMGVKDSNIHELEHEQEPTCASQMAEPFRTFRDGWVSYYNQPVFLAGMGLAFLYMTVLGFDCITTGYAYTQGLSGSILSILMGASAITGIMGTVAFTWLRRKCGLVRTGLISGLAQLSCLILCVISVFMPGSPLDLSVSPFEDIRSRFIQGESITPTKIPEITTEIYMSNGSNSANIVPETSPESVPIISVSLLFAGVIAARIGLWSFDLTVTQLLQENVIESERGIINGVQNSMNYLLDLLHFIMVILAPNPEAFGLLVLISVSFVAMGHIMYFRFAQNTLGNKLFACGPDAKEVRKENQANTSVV
# Molecular target: T1, human ferroportin (SLC40A1) fused in …
# Test: cell-based or functional assay
row,FPN IC50 [µM],Binder
1,> 3,Isovaleryl-DTH[αMeF]PCIK([γGlu-Palmitoyl])[αMeF]C-NH2 (disulfide 6-10; SMILES CCCCCCCCCCCCCCCC(=O)N[C@@H](CCC(=O)NCCCC[C@@H]1NC(=O)[C@H]([C@@H](C)CC)NC(=O)[C@@H](NC(=O)[C@@H]2CCCN2C(=O)[C@](C)(Cc2ccccc2)NC(=O)[C@H](Cc2c[nH]cn2)NC(=O)[C@@H](NC(=O)[C@H](CC(=O)O)NC(=O)CC(C)C)[C@@H](C)O)CSSC[C@@H](C(N)=O)NC(=O)[C@](C)(Cc2ccccc2)NC1=O)C(=O)O) [Compd ID 217]
2,0.026,Isovaleryl-DTHFPCI[dK]([PEG12-Palmitoyl])F[dK]C-NH2 (disulfide 6-11; SMILES CCCCCCCCCCCCCCCC(=O)NCCOCCOCCOCCOCCOCCOCCOCCOCCOCCOCCOCCOCCC(=O)NCCCC[C@H]1NC(=O)[C@H]([C@@H](C)CC)NC(=O)[C@@H](NC(=O)[C@@H]2CCCN2C(=O)[C@H](Cc2ccccc2)NC(=O)[C@H](Cc2c[nH]cn2)NC(=O)[C@@H](NC(=O)[C@H](CC(=O)O)NC(=O)CC(C)C)[C@@H](C)O)CSSC[C@@H](C(N)=O)NC(=O)[C@@H](CCCCN)NC(=O)[C@H](Cc2ccccc2)NC1=O) [Compd ID 225]
3,0.182,Isovaleryl-DTH[β3hF]PCIK([γGlu-Palmitoyl])[αMeF]C-NH2 (disulfide 6-10; SMILES CCCCCCCCCCCCCCCC(=O)N[C@@H](CCC(=O)NCCCC[C@@H]1NC(=O)[C@H]([C@@H](C)CC)NC(=O)[C@@H](NC(=O)[C@@H]2CCCN2C(=O)C[C@H](Cc2ccccc2)NC(=O)[C@H](Cc2c[nH]cn2)NC(=O)[C@@H](NC(=O)[C@H](CC(=O)O)NC(=O)CC(C)C)[C@@H](C)O)CSSC[C@@H](C(N)=O)NC(=O)[C@](C)(Cc2ccccc2)NC1=O)C(=O)O) [Compd ID 219]
4,0.004,Isovaleryl-DTHFPCIK([PEG12-Palmitoyl])FC-NH2 (disulfide 6-10; SMILES CCCCCCCCCCCCCCCC(=O)NCCOCCOCCOCCOCCOCCOCCOCCOCCOCCOCCOCCOCCC(=O)NCCCC[C@@H]1NC(=O)[C@H]([C@@H](C)CC)NC(=O)[C@@H](NC(=O)[C@@H]2CCCN2C(=O)[C@H](Cc2ccccc2)NC(=O)[C@H](Cc2c[nH]cn2)NC(=O)[C@@H](NC(=O)[C@H](CC(=O)O)NC(=O)CC(C)C)[C@@H](C)O)CSSC[C@@H](C(N)=O)NC(=O)[C@H](Cc2ccccc2)NC1=O) [Compd ID 222]
5,0.016,Isovaleryl-DTH[Dip]PCIK([γGlu-Palmitoyl])[αMeF]C-NH2 (disulfide 6-10; SMILES CCCCCCCCCCCCCCCC(=O)N[C@@H](CCC(=O)NCCCC[C@@H]1NC(=O)[C@H]([C@@H](C)CC)NC(=O)[C@@H](NC(=O)[C@@H]2CCCN2C(=O)[C@@H](NC(=O)[C@H](Cc2c[nH]cn2)NC(=O)[C@@H](NC(=O)[C@H](CC(=O)O)NC(=O)CC(C)C)[C@@H](C)O)C(c2ccccc2)c2ccccc2)CSSC[C@@H](C(N)=O)NC(=O)[C@](C)(Cc2ccccc2)NC1=O)C(=O)O) [Compd ID 216]

# The next lines start with the binder.
row,Binder,FPN IC50 [µM]
1,Isovaleryl-DTHWPCIK([γGlu-Palmitoyl])[αMeF]C-NH2 (disulfide 6-10; SMILES CCCCCCCCCCCCCCCC(=O)N[C@@H](CCC(=O)NCCCC[C@@H]1NC(=O)[C@H]([C@@H](C)CC)NC(=O)[C@@H](NC(=O)[C@@H]2CCCN2C(=O)[C@H](Cc2c[nH]c3ccccc23)NC(=O)[C@H](Cc2c[nH]cn2)NC(=O)[C@@H](NC(=O)[C@H](CC(=O)O)NC(=O)CC(C)C)[C@@H](C)O)CSSC[C@@H](C(N)=O)NC(=O)[C@](C)(Cc2ccccc2)NC1=O)C(=O)O) [Compd ID 220],0.871
2,Isovaleryl-DTHFPCI[dK]([PEG12-Palmitoyl])F[dR]C-NH2 (disulfide 6-11; not fully specified) [Compd ID 226],0.023
3,Isovaleryl-DTHFPCI[dK]([PEG12-Palmitoyl])FKC-NH2 (disulfide 6-11; SMILES CCCCCCCCCCCCCCCC(=O)NCCOCCOCCOCCOCCOCCOCCOCCOCCOCCOCCOCCOCCC(=O)NCCCC[C@H]1NC(=O)[C@H]([C@@H](C)CC)NC(=O)[C@@H](NC(=O)[C@@H]2CCCN2C(=O)[C@H](Cc2ccccc2)NC(=O)[C@H](Cc2c[nH]cn2)NC(=O)[C@@H](NC(=O)[C@H](CC(=O)O)NC(=O)CC(C)C)[C@@H](C)O)CSSC[C@@H](C(N)=O)NC(=O)[C@H](CCCCN)NC(=O)[C@H](Cc2ccccc2)NC1=O) [Compd ID 224],0.033
4,Isovaleryl-DTHFPCIK([γGlu-Palmitoyl])FC-NH2 (disulfide 6-10; SMILES CCCCCCCCCCCCCCCC(=O)N[C@@H](CCC(=O)NCCCC[C@@H]1NC(=O)[C@H]([C@@H](C)CC)NC(=O)[C@@H](NC(=O)[C@@H]2CCCN2C(=O)[C@H](Cc2ccccc2)NC(=O)[C@H](Cc2c[nH]cn2)NC(=O)[C@@H](NC(=O)[C@H](CC(=O)O)NC(=O)CC(C)C)[C@@H](C)O)CSSC[C@@H](C(N)=O)NC(=O)[C@H](Cc2ccccc2)NC1=O)C(=O)O) [Compd ID 223],0.047
5,Isovaleryl-DTHFPCIK([γGlu-Palmitoyl])FKC-NH2 (disulfide 6-11; SMILES CCCCCCCCCCCCCCCC(=O)N[C@@H](CCC(=O)NCCCC[C@@H]1NC(=O)[C@H]([C@@H](C)CC)NC(=O)[C@@H](NC(=O)[C@@H]2CCCN2C(=O)[C@H](Cc2ccccc2)NC(=O)[C@H](Cc2c[nH]cn2)NC(=O)[C@@H](NC(=O)[C@H](CC(=O)O)NC(=O)CC(C)C)[C@@H](C)O)CSSC[C@@H](C(N)=O)NC(=O)[C@H](CCCCN)NC(=O)[C@H](Cc2ccccc2)NC1=O)C(=O)O) [Compd ID 227],0.114
6,Isovaleryl-DTHF[NPC]CIK([γGlu-Palmitoyl])[αMeF]C-NH2 (disulfide 6-10) [Compd ID 221],0.079
7,Isovaleryl-DTH[NMeF]PCIK([γGlu-Palmitoyl])[αMeF]C-NH2 (disulfide 6-10; SMILES CCCCCCCCCCCCCCCC(=O)N[C@@H](CCC(=O)NCCCC[C@@H]1NC(=O)[C@H]([C@@H](C)CC)NC(=O)[C@@H](NC(=O)[C@@H]2CCCN2C(=O)[C@H](Cc2ccccc2)N(C)C(=O)[C@H](Cc2c[nH]cn2)NC(=O)[C@@H](NC(=O)[C@H](CC(=O)O)NC(=O)CC(C)C)[C@@H](C)O)CSSC[C@@H](C(N)=O)NC(=O)[C@](C)(Cc2ccccc2)NC1=O)C(=O)O) [Compd ID 218],> 3

# Molecular target: T1, human ferroportin (SLC40A1) fused in …
# Test: cell-based or functional assay
# Remark: another data set of the same source
row,FPN IC50 [µM],Binder
1,0.028,DTHFPCIKF (N-terminal isovaleric acid on each monomer; the two monomers linked through K-Lys[isoGlu-Palm]-NH2) [Compd ID 501]
2,0.033,DTHFPCIKF (N-terminal isovaleric acid on each monomer; the two monomers linked through [D-Lys]-Lys[isoGlu-Palm]-NH2) [Compd ID 502]
3,0.021,DTHFPCIKF (N-terminal isovaleric acid on each monomer; D-Lys 8; the two monomers linked through Lys[isoGlu-Palm]-NH2) [Compd ID 503]
